This assay addresses T1, alpha1a adrenergic receptor (Homo sapiens, UniProt P35348).
T1 sequence (P35348 1-466): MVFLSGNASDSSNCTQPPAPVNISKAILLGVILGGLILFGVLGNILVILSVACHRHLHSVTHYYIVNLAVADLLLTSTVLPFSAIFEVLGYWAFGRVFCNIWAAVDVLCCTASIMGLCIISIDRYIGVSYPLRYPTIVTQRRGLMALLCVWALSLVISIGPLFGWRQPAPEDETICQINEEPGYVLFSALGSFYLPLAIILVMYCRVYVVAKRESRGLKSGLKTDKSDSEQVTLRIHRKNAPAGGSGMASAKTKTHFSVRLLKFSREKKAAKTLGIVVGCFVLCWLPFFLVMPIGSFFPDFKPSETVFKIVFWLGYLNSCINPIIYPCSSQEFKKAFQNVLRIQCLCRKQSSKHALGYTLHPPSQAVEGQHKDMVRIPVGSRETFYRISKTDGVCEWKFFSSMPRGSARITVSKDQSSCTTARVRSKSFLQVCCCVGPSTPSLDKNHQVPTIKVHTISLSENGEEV
In words: hot saturation of 125I-AdTx1 on yeast membranes expressing the alpha1a adrenergic receptor. Conditions: read-out: high-affinity specific binding (saturation) to the alpha1a adrenergic receptor; 20 μg yeast membranes, 20 h.

Method: The analysis of the saturation of the alpha1a adrenergic receptor with AdTx1 is carried out by incubating increasing concentrations of the iodinated peptide in the presence of 20 μg of membranes containing the alpha1a adrenergic receptor, for 20 h, and then measuring the radioactivity as above.

B1: ^125I-AdTx1: radiolabeled (iodinated) AdTx1 peptide (peptide)
peptide: LTCVTSKSIFGITTEDCPDGQNLCFKRRHYVVPKIYDSTRGCAATCPIPENYDSIHCCKTDKCNE
modifications: also: radioiodinated (125I), place not given here
Take B1: the Kd came to 0.8 ± 0.2 nM.
